Target: T1, FHH-tagged Siah1, recombinant purified (UniProt Q8IUQ4 1-282, labeled with RED-tris-NTA 2nd generation dye (Monolith His-Tag labeling kit))
T1 sequence (looked up): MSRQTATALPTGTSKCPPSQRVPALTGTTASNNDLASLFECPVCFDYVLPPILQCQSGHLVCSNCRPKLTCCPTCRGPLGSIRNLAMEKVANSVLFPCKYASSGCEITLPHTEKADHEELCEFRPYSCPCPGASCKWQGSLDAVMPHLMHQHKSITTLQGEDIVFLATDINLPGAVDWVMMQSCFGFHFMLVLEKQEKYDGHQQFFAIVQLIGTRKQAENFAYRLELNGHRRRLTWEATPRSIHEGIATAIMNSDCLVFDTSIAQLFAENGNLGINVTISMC
Assay: MST

- Kd: 9.8 µM
B1: n-terminus FLAG-tagged CacyBP, recombinant purified (natural protein, UniProt Q9HB71 1-228, looked up)
chain: MASEELQKDLEEVKVLLEKATRKRVRDALTAEKSKIETEIKNKMQQKSQKKAELLDNEKPAAVVAPITTGYTVKISNYGWDQSDKFVKIYITLTGVHQVPTENVQVHFTERSFDLLVKNLNGKSYSMIVNNLLKPISVEGSSKKVKTDTVLILCRKKVENTRWDYLTQVEKECKEKEKPSYDTETDPSEGLMNVLKKIYEDGDDDMKRTINKAWVESREKQAKGDTEF
